First the molecules themselves.
B1: minF1; the commonest letter at each place (parent)
chain: GAGACCGCAACTGAAAAGTTGTTATCAGAAATGGATGGGTTGAATTTCTGCACGTAGAAGCAAAAGGC

The variants in the data set derive from B1. As to the kind of experiment: fraction ligated after 30 min (ligated reads / total reads); higher = more ligase activity. The conditions noted are these: with F1*subA RNA substrate (template-directed ligation), 42 °C. Summed up: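 Templates from an oligo pool encoding minimized ligase ribozyme variants were amplified by PCR, transcribed with T7, and purified on gels. Gel electrophoresis separated ligated from unligated RNAs, which were then reverse transcribed using barcoded primers and sequenced on a MiSeq, keeping core bases with quality ≥30. For each variant, fraction ligated equals ligated reads divided by total reads.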
With G37T A43T, the fraction ligated amounted to 0.00731. The result for T32A G34A reads 0.00575; that for T25G G42C, 0.004.

For T25G G42T, the fraction ligated was found to be 0.000854. The result for A24G G28T reads 0.254; that for A29T G42A, 0.269. The result for G42C A44T reads 0.00542; that for A31T T32C, 0.0483; that for G28C G34T, 0.00677. The result for G28C G34C reads 0.00831; that for G28A T32C, 0.0224. C26T A44G: the fraction ligated stood at 0.142.

Turning to A30T A31C, the fraction ligated was 0.801. With G28T A43T, the fraction ligated was determined as 0.158. The result for T25C A30G reads 0.0308; that for A31T G33T, 0.467; that for A29G T36C, 0.0189. The result for A29G T36G reads 0.0397; that for A29T A30T, 0.789; that for A31C G33C, 0.653. The result for T25A A27C reads 0.0652; that for G34A T36G, 0.0395; that for T25A A43G, 0.00383. As for G42T A43C, the fraction ligated is 0.000975. The result for A29C G33T reads 0.526; that for A35G A43G, 0.00504; that for A35G A43T, 0.0109. The result for A35G A43C reads 0.00434; that for T23C G33T, 0.0728; that for T23C A44C, 0.0323. The result for T23C A44T reads 0.0534; that for G28A G37C, 0.00899. For T32G, the fraction ligated was 0.02. The result for T32C reads 0.0302; that for C26A A27C, 0.134; that for A24G G33C, 0.0566.

With A24G G33A, the fraction ligated came out at 0.294.

For the variant G28T, the fraction ligated was 0.806. The result for C26G A27G reads 0.0369. The result for A31T A43T reads 0.215. The result for T23C A31T reads 0.517; that for T23G C26T, 0.434. As to T23G C26G, the fraction ligated was 0.0528. The result for T23G C26A reads 0.123. The result for T23C G34C reads 0.0023; that for A29C A30G, 0.827. The result for C26T T32C reads 0.00511; that for unchanged, 0.761; that for A27C G37A, 0.0106. Regarding A27C G37T, the fraction ligated turned out to be 0.0224. The result for A30C G42A reads 0.217; that for A35C T36A, 0.00922; that for T32C A43T, 0.00881.

As to T25G A35G, the fraction ligated amounted to 0.00379. The result for T25G A35C reads 0.845; that for A29G G37T, 0.0206. For the variant G28C G33T, the fraction ligated is 0.639. Turning to A30T G37T, the fraction ligated turned out to be 0.0219. The result for A24C A44T reads 0.0123; that for T32A A35G, 0.0076. On to A24C G33T, for which the fraction ligated stood at 0.0129.

As for C26T A31T, the fraction ligated worked out at 0.404. As for A29G A31T, the fraction ligated was determined as 0.812. The result for T32C G37A reads 0.00241; that for T23A A27T, 0.488; that for T32G T36A, 0.00414. The result for C26A A44T reads 0.0723; that for A27C G34T, 0.0114.

Consider G34T T36G, for which the fraction ligated is 0.00275. With A24C G42T, the fraction ligated is 0.00251. The result for A24C G42C reads 0.000786; that for A27C A30G, 0.759. The result for A35C G42C reads 0.00254; that for T23C T36G, 0.0318; that for A27C T32C, 0.0159. The result for A27G A44T reads 0.774. On to A27G A44C, for which the fraction ligated turned out to be 0.69.

On to G28T A31G, for which the fraction ligated was 0.82. With G33T G34T, the fraction ligated was 0.00514.

For A27T A43C, the fraction ligated is 0.336. The result for A27T A43T reads 0.412; that for G28T A35T, 0.051; that for T36G G37T, 0.00976. The result for T25C G28C reads 0.165.

The record behind these values is the supplement of paper PMC6755084.
